Experimental findings from US20090202508A1, “NEGATIVE REGULATION OF HYPOXIA INDUCIBLE FACTOR 1 BY OS-9” (THE JOHNS HOPKINS UNIVERSITY, priority 2004, published 2009) are described below.

In experiment [1] the test system is HIF-1α. The experiment can be described thus: In vitro interaction (GST pull-down) assay of OS-9 with GST-HIF-1α fusion proteins. It is filed as binding, human. The settings on record: FIG. 2A. As for the experimental part: (§1) To prepare GST fusion proteins, E. coli BL21-Gold(DE3)pLysS (Stratagene) was transformed with a pGEX expression vector and treated for 4 h with 0.5 mM isopropyl-D-thiogalactoside. Pelleted cells were lysed by sonication in PBS containing 1% Triton X-100 and Complete protease inhibitor cocktail (Roche). After centrifugation, supernatants were applied to glutathione-Sepharose 4B beads (Amersham Pharmiacia Biotech). GST fusion proteins were eluted with 10 mM reduced glutathione in 50 mM Tris-HCl (pH 8.0) and stored at −80° C. The concentration and purity of eluates were determined by the Bradford method and by SDS-PAGE. [^35S]methionine-labeled proteins were generated in reticulocyte lysates with plasmids encoding HA-OS-9 or FLAG-VHL using the TNT T7 coupled transcription/translation system (Promega). Ten μl of in vitro-translated ^35S-labeled protein was mixed with 4 μg of GST or GST-HIF-1α fusion protein (Mahon et al. 2001) in a final volume of 200 μof PBS-T binding buffer (Dulbecco's PBS [pH 7.4], 0.1% Tween-20). The binding reaction was performed at 4° C. for 2 h with rotation followed by the addition of […] pre-washed glutathione-Sepharose 4B beads. After 30 min of mixing on a rotator, the beads were washed three times with PBS-T. Proteins were eluted in Laemmli sample buffer and analyzed by SDS-PAGE followed by autoradiography.

Experiment [2] concerns the target T1, HIF-1α (Homo sapiens, UniProt Q16665). Put plainly: Co-immunoprecipitation of HA-OS-9 and HIF-1α in 293 cells. It is filed as cell-based. Particulars: anti-HA immunoprecipitation, FIG. 2B. As to the method:
(§2) 293 cells (3×10^6 cells per […] plate) were transfected with Lipofectamine Plus and a total of 10 μg of expression vectors. After 24 h, cells were lysed with PBS/0.1% Tween-20. 400 μg of whole cell lysate (brought to a final volume of 200 μl with lysis buffer) were immunoprecipitated using anti-HA affinity matrix (Roche) followed by immunoblot assay using antibody against HIF-1α (Zhong et al. 1999), PHD 1-3 (Novus Biologicals Inc.), or HA (Roche).
Target sequence in this assay (Q16665 whole entry): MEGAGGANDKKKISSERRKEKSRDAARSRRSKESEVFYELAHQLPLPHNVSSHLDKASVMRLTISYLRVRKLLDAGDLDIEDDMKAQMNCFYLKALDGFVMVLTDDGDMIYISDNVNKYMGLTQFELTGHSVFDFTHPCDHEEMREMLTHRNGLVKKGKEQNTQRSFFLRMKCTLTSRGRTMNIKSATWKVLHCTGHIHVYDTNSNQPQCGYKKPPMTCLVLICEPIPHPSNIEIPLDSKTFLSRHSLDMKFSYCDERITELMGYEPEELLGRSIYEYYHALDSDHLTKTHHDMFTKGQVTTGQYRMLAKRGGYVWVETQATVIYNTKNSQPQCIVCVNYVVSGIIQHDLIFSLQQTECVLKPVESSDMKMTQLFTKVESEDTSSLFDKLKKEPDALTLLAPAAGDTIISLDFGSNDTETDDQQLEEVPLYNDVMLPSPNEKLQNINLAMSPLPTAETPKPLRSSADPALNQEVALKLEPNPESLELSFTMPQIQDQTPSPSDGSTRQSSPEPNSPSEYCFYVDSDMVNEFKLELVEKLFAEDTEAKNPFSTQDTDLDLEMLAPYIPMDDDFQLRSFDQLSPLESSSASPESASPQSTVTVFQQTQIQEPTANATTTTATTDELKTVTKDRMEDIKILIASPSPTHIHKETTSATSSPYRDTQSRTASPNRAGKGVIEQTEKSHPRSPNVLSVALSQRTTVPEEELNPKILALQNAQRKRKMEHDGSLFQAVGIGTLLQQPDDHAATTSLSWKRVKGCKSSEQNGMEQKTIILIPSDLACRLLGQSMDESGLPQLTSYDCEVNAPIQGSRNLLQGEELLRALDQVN

For experiment [3], the target named is T1, HIF-1α. Put plainly: In vitro interaction (GST pull-down) assay of OS-9 with GST-HIF-1α fusion proteins. Type of experiment: binding. The arrangement: made in house; host or cells: E. coli BL21-Gold(DE3)pLysS (GST fusion); rabbit reticulocyte lysate TNT T7 (HA-OS-9). Particulars: increasing amounts of in vitro-translated OS-9, desferrioxamine present; FIG. 6C. As for the experimental part:
as §1
Target sequence in this assay (Q16665 531-826): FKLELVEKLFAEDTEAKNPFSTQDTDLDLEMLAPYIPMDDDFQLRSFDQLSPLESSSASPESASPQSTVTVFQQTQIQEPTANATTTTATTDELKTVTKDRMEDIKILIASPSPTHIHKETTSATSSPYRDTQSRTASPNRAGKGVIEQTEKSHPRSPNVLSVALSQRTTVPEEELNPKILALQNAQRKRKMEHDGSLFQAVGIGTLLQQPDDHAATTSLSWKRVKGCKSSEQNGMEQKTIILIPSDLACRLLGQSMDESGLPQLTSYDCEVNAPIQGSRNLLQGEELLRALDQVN

Another experiment has as its target T2, PHD1 (Homo sapiens, UniProt Q96KS0).
T2 construct: expressed in transfected cells; host or cells: 293 cells
Put plainly: Co-immunoprecipitation of HA-OS-9 with PHD1 in 293 cells. The settings on record: anti-HA immunoprecipitates, immunoblot; FIG. 5. Type of experiment: cell-based. As to the method: as §2
A general note: A western blot detects proteins with antibodies after separation by electrophoresis.

For another experiment, the target named is T3, PHD2 (Homo sapiens, UniProt Q9GZT9).
T3 construct: expressed in transfected cells; host or cells: 293 cells (whole cell lysate used as the enzyme source)
Put plainly: Co-immunoprecipitation of HA-OS-9 with PHD2 in 293 cells. It is filed as cell-based. Particulars: anti-HA immunoprecipitates, immunoblot; FIG. 5. As to the method: as §2

T3 sequence (Q9GZT9 whole entry): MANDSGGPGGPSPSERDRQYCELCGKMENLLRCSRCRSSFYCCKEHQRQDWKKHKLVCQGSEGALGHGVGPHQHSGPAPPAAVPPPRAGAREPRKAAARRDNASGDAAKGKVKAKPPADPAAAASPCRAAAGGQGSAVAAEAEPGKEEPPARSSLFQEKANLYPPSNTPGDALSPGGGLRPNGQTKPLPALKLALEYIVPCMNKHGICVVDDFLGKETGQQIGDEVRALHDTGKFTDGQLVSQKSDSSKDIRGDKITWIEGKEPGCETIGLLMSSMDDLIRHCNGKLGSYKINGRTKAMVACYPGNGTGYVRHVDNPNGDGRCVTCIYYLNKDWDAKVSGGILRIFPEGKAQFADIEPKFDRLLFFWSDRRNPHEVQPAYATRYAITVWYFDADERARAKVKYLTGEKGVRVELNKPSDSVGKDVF
T2 sequence (Q96KS0 whole entry): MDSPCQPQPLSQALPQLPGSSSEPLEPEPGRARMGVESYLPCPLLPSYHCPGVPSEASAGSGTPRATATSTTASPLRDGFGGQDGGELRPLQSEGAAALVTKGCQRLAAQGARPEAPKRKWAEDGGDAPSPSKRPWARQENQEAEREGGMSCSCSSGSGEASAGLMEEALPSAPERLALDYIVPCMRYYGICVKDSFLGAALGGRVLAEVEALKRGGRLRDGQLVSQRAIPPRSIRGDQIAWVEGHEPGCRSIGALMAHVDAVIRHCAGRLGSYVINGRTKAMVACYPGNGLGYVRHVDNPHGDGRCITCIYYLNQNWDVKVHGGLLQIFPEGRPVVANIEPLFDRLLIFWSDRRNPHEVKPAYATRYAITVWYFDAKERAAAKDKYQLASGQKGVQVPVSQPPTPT

B1: OS-9: human OS-9 protein (667-residue isoform), HA-tagged, from expression vector or in vitro-translated (protein)
chain: MAAETLLSSLLGLLLLGLLLPASLTGGVGSLNLEELSEMRYGIEILPLPVMGGQSQSSDVVIVSSKYKQRYECRLPAGAIHFQREREEETPAYQGPGIPELLSPMRDAPCLLKTKDWWTYEFCYGRHIQQYHMEDSEIKGEVLYLGYYQSAFDWDDETAKASKQHRLKRYHSQTYGNGSKCDLNGRPREAEVRFLCDEGAGISGDYIDRVDEPLSCSYVLTIRTPRLCPHPLLRPPPSAAPQAILCHPSLQPEEYMAYVQRQADSKQYGDKIIEELQDLGPQVWSETKSGVAPQKMAGASPTKDDSKDSDFWKMLNEPEDQAPGGEEVPAEEQDPSPEAADSASGAPNDFQNNVQVKVIRSPADLIRFIEELKGGTKKGKPNIGQEQPVDDAAEVPQREPEKERGDPERQREMEEEEDEDEDEDEDEDERQLLGEFEKELEGILLPSDRDRLRSEVKAGMERELENIIQETEKELDPDGLKKESERDRAMLALTSTLNKLIKRLEEKQSPELVKKHKKKRVVPKKPPPSPQPTEEDPEHRVRVRVTKLRLGGPNQDLTVLEMKRENPQLKQIEGLVKELLEREGLTAAGKIEIKIVRPWAEGTEEGARWLTDEDTRNLKEIFFNILVPGAEEAQKERQRQKELESNYRRVWGSPGGEGTGDLDEFDF
modifications: left off: small tags and cut ends
notes: human OS-9 protein (667-residue isoform), HA-tagged, from expression vector or in vitro-translated
B1: the “binding of OS-9 to GST-HIF-1α” value is reported as “did not bind” in the experiment with HIF-1α [1] (HIF-1α residues 1-329, 429-608, 531-610, and 786-826); “efficiently bound” in the experiment with HIF-1α [1] (HIF-1α residues 531-826, 653-826, or 692-826). In the experiment with HIF-1α [2], the “interaction of HA-OS-9 and HIF-1α in living cells” value is recorded as “coimmunoprecipitation”. The “binding of OS-9 to GST-HIF-1α (531-826)” value with HIF-1α [3] is “dose-dependent manner”. In the experiment with PHD1, the “interaction of OS-9 with PHD1” value is “interaction”. Further, in the experiment with PHD2, the “interaction of OS-9 with PHD2” value is listed as “interaction”.
